Results as given in article PMC11964946.

Target: Vicia altissima seed lectin (VICALTA) (Vicia altissima)
Assay: native gel or EMSA; native PAGE on Mini-PROTEAN TGX 4%-20% precast gels (single band at 87 kDa), compared with SDS-PAGE (single band at 38 kDa); purified seed lectin

Substance: Vicia altissima seed lectin (VICALTA) (natural protein)
- stoichiometry N: 2
